The target in test [1] is T1, human serum albumin (human, UniProt P02768 25-609).
T1 construct: also called HSA
Briefly: bridging ELISA: capture on coated hCD40L, 10 uM HSA, anti-HSA detection. On the technique in general: In an ELISA, binding on a coated surface is turned into a signal by an enzyme label.

In test [2] the target is T2, hCD40L expressed on hCD40L-HEK-293 cells (Crown Biosciences, C2041) (human, UniProt P29965 1-261).
T2 construct: whole, on cells; also called huCD40L HEK293
T2 sequence (looked up): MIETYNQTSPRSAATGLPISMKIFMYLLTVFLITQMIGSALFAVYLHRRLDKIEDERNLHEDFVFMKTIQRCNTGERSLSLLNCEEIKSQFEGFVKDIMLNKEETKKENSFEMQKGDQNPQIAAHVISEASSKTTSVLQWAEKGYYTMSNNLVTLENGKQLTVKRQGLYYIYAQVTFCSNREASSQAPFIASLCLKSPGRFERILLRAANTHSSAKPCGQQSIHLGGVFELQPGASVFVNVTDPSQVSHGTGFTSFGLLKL
Briefly: flow cytometry on hCD40L-HEK293 cells, doses 0.7 to 500 nM. (Flow cytometry measures light scatter and fluorescence of single cells or particles in a stream.)

Test [3] addresses T3, human CD40L (hCD40L antigen) (human, UniProt P29965 113-261, limits assumed).
T3 sequence (looked up): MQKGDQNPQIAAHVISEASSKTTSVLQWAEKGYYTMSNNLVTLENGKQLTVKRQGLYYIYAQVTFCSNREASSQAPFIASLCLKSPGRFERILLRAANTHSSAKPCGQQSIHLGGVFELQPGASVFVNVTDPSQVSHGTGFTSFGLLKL
Nature of the test: cell-based or functional assay.

Experimental findings from patent EP4477665A1 (AffyXell Therapeutics Co., Ltd., dated 2024) are described below.

T1 sequence (P02768 25-609): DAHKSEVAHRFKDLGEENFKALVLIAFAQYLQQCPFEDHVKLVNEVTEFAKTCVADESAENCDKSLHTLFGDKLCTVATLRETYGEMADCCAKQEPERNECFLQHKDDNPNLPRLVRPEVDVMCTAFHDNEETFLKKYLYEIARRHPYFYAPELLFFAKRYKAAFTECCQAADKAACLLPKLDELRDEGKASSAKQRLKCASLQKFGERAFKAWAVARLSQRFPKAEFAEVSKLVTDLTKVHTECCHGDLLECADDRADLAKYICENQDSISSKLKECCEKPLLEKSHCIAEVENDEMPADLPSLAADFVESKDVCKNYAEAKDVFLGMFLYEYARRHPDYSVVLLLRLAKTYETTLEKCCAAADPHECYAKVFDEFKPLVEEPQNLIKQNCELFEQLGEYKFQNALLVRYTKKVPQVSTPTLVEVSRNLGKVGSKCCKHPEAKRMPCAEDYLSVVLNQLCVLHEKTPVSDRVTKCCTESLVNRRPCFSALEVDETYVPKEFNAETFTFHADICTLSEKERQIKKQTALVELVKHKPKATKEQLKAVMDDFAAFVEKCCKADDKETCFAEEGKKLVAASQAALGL

B1: clone-230 XT76 (designed binder)
chain: IPGGLSEAKPATPEIQEIVDKVKPQLEEKTGETYGKLEAVQYKTQVVHYYVHYNDQGTNYYIKVRAGDNKYMHLKVFKSLWGENLFAKWEDLVLTGYQVDKNKDDELTGFAEAAAKEAAAKEAAAKEAAAKEAAAKEAAAKMIPGGLSEAKPATPEIQEIVDKVKPQLEEKTGETYGKLEAVQYKTQVVHYYVHYNDQGTNYYIKVRAGDNKYMHLKVFKSLWGENLFAKWEDLVLTGYQVDKNKDDELTGFAEAAAKEAAAKEAAAKEAAAKEAAAKEAAAKMIPGGLSEAKPATPEIQEIVDKVKPQLEEKTGETYGKLEAVQYKTQVVHYYVHYNDQGTNYYIKVRAGDNKYMHLKVFKSLWGENLFAKWEDLVLTGYQVDKNKDDELTGFAEAAAKEAAAKEAAAKEAAAKEAAAKEAAAKMIPGGLSEAKPATPEIQEIVDKVKPQLEEKTGETYGKLEAVQYKTQVVHYYVHYNDQGTNYYIKVRAGDNKYMHLKVFKSLWGENLFAKWEDLVLTGYQVDKNKDDELTGFAEAAAKEAAAKEAAAKEAAAKEAAAKEAAAKMIPRGLSEAKPATPEIQEIVDKVKPQLEEKTGETYGKLEAVQYKTQVLANFFQRRWPGSTNYYIKVRAGDNKYMHLKVFNGPWKFRNTDRGADRVLTGYQVDKNKDDELTGF
For the molecule B1, in test [1], the binding result is recorded as “binds”.

B2: clone 230 (designed binder)
chain: MIPGGLSEAKPATPEIQEIVDKVKPQLEEKTGETYGKLEAVQYKTQVVHYYVHYNDQGTNYYIKVRAGDNKYMHLKVFKSLWGENLFAKWEDLVLTGYQVDKNKDDELTGF
With B2, in test [2], the binding result is recorded as “binds”.

B3: clone-230 XT75 (designed binder)
chain: IPGGLSEAKPATPEIQEIVDKVKPQLEEKTGETYGKLEAVQYKTQVVHYYVHYNDQGTNYYIKVRAGDNKYMHLKVFKSLWGENLFAKWEDLVLTGYQVDKNKDDELTGFAEAAAKEAAAKEAAAKEAAAKEAAAKEAAAKMIPGGLSEAKPATPEIQEIVDKVKPQLEEKTGETYGKLEAVQYKTQVVHYYVHYNDQGTNYYIKVRAGDNKYMHLKVFKSLWGENLFAKWEDLVLTGYQVDKNKDDELTGFAEAAAKEAAAKEAAAKEAAAKEAAAKEAAAKMIPGGLSEAKPATPEIQEIVDKVKPQLEEKTGETYGKLEAVQYKTQVVHYYVHYNDQGTNYYIKVRAGDNKYMHLKVFKSLWGENLFAKWEDLVLTGYQVDKNKDDELTGFAEAAAKEAAAKEAAAKEAAAKEAAAKEAAAKMIPRGLSEAKPATPEIQEIVDKVKPQLEEKTGETYGKLEAVQYKTQVLANFFQRRWPGSTNYYIKVRAGDNKYMHLKVFNGPWKFRNTDRGADRVLTGYQVDKNKDDELTGF
For B3, the binding result in test [1] is “binds”.

B4: clone 230 DJ (designed binder)
chain: IPGGLSEAKPATPEIQEIVDKVKPQLEEKTGETYGKLEAVQYKTQVVHYYVHYNDQGTNYYIKVRAGDNKYMHLKVFKSLWGENLFAKWEDLVLTGYQVDKNKDDELTGFGGGGSGGGGSGGGGSGGGGSGGGGSGGGGSMIPGGLSEAKPATPEIQEIVDKVKPQLEEKTGETYGKLEAVQYKTQVVHYYVHYNDQGTNYYIKVRAGDNKYMHLKVFKSLWGENLFAKWEDLVLTGYQVDKNKDDELTGFGGGGSGGGGSGGGGSGGGGSGGGGSGGGGSMIPGGLSEAKPATPEIQEIVDKVKPQLEEKTGETYGKLEAVQYKTQVVHYYVHYNDQGTNYYIKVRAGDNKYMHLKVFKSLWGENLFAKWEDLVLTGYQVDKNKDDELTGF
As to B4, the “EC50, HEK-Blue cell-based assay” value in test [3] amounted to 5.99 nM.
